Laboratory results published in IntAct's records for PubMed 22484091.

B1: BRO1 domain-containing protein BROX (Homo sapiens), Q5VW32 (parent)
chain: MTHWFHRNPLKATAPVSFNYYGVVTGPSASKICNDLRSSRARLLELFTDLSCNPEMMKNAADSYFSLLQGFINSLDESTQESKLRYIQNFKWTDTLQGQVPSAQQDAVFELISMGFNVALWYTKYASRLAGKENITEDEAKEVHRSLKIAAGIFKHLKESHLPKLITPAEKGRDLESRLIEAYVIQCQAEAQEVTIARAIELKHAPGLIAALAYETANFYQKADHTLSSLEPAYSAKWRKYLHLKMCFYTAYAYCYHGETLLASDKCGEAIRSLQEAEKLYAKAEALCKEYGETKGPGPTVKPSGHLFFRKLGNLVKNTLEKCQRENGFIYFQKIPTEAPQLELKANYGLVEPIPFEFPPTSVQWTPETLAAFDLTKRPKDDSTKPKPEEEVKPVKEPDIKPQKDTGCYIS
B2: Charged multivesicular body protein 4b (Homo sapiens), Q9H444 (parent)
chain: MSVFGKLFGAGGGKAGKGGPTPQEAIQRLRDTEEMLSKKQEFLEKKIEQELTAAKKHGTKNKRAALQALKRKKRYEKQLAQIDGTLSTIEFQREALENANTNTEVLKNMGYAAKAMKAAHDNMDIDKVDELMQDIADQQELAEEISTAISKPVGFGEEFDEDELMAELEELEQEELDKNLLEISGPETVPLPNVPSIALPSKPAKKKEEEDDDMKELENWAGSM
B3: BRO1 domain-containing protein BROX (Homo sapiens), Q5VW32 (parent)
chain: B1 chain
partner: B2 chain

Variants of: B1
Conditions: with CHMP5, Q9NZZ3-1
Chain of CHMP5, Q9NZZ3-1 (Q9NZZ3 whole entry): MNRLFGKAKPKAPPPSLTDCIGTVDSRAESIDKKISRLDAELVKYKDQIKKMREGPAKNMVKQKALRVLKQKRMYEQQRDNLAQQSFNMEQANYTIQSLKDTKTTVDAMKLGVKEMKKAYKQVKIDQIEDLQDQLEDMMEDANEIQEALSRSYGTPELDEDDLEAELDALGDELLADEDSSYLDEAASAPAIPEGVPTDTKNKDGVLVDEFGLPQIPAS

Row | Variant | effect of a mutation on the interaction
1 | MTHWFHRNPLKATAPVSFNYYGVVTGPSASKICNDLRSSRARLLELFTDLSCNPEMMKNAADSYFSLLQGFINSLDESTQESKLRYIQNFKWTDTLQGQVPSAQQDAVFELISMGFNVALWYTKYASRLAGKENITEDEAKEVHRSLKIAAGIFKHLKESHLPKLITPAEKGRDLESRLIEAYVIQCQAEAQEVTIARAIELKAAPGLIAALAYETANFYQKADHTLSSLEPAYSAKWRKYLHLKMCFYTAYAYCYHGETLLASDKCGEAIRSLQEAEKLYAKAEALCKEYGETKGPGPTVKPSGHLFFRKLGNLVKNTLEKCQRENGFIYFQKIPTEAPQLELKANYGLVEPIPFEFPPTSVQWTPETLAAFDLTKRPKDDSTKPKPEEEVKPVKEPDIKPQKDTGCYIS [H204A] | disrupting interaction strength
2 | MTHWFHRNPLKATAPVSFNYYGVVTGPSASKICNDLRSSRARLLELFTDLSCNPEMMKNAADSYFSLLQGFINSLDESTQESKLRYIQNFKWTDTLQGQVPSAQQDAVFELISMGFNVALWYTKYASRLAGKENITEDEAKEVHRSLKIAAGIFKHLKESHLPKLITPAEKGRDLESRLIEAYVIQCQAEAQEVTIARAIELKHAPGDIAADAYETANFYQKADHTLSSLEPAYSAKWRKYLHLKMCFYTAYAYCYHGETLLASDKCGEAIRSLQEAEKLYAKAEALCKEYGETKGPGPTVKPSGHLFFRKLGNLVKNTLEKCQRENGFIYFQKIPTEAPQLELKANYGLVEPIPFEFPPTSVQWTPETLAAFDLTKRPKDDSTKPKPEEEVKPVKEPDIKPQKDTGCYIS [L208D;L212D] | disrupting interaction strength
3 | MTHWFHRNPLKATAPVSFNYYGVVTGPSASKICNDLRSSRARLLELFTDLSCNPEMMKNAADSYFSLLQGFINSLDESTQESKLRYIQNFKWTDTLQGQVPSAQQDAVFELISMGFNVALWYTKYASRLAGKENITEDEAKEVHRSLKIAAGIFKHLKESHLPKLITPAEKGRDLESRLIEAYVIQCQAEAQEVTIARAIELKHAPGLIAALAYETANFYQKADHTLSSLEPAYSAKWRKYLHLKMCFYTAYAYCYHGETLLASDKCGEAIRSLQEAEKLYAKAEALCKEYGETKGPGPTVKPSGHLFFRKLGNLVKNTLEKCQRENGFIYFQKIPTEAPQLELKANAGLVEPIPFEFPPTSVQWTPETLAAFDLTKRPKDDSTKPKPEEEVKPVKEPDIKPQKDTGCYIS [Y348A] | disrupting interaction strength

Variants of: B2
Conditions: with brox_human BROX

Row | Variant | effect of a mutation on the interaction
4 | MSVFGKLFGAGGGKAGKGGPTPQEAIQRLRDTEEMLSKKQEFLEKKIEQELTAAKKHGTKNKRAALQALKRKKRYEKQLAQIDGTLSTIEFQREALENANTNTEVLKNMGYAAKAMKAAHDNMDIDKVDELMQDIADQQELAEEISTAISKPVGFGEEFDEDELMAELEELEQEELDKNLLEISGPETVPLPNVPSIALPSKPAKKKEEEDDDMKEAENWAGSM [L217A] | decreasing interaction strength
5 | MSVFGKLFGAGGGKAGKGGPTPQEAIQRLRDTEEMLSKKQEFLEKKIEQELTAAKKHGTKNKRAALQALKRKKRYEKQLAQIDGTLSTIEFQREALENANTNTEVLKNMGYAAKAMKAAHDNMDIDKVDELMQDIADQQELAEEISTAISKPVGFGEEFDEDELMAELEELEQEELDKNLLEISGPETVPLPNVPSIALPSKPAKKKEEEDDDMKELENAAGSM [W220A] | decreasing interaction strength

Variants of: B3
Conditions: with chm4b_human CHMP4B

Row | Variant | effect of a mutation on the interaction
6 | MTHWFHRNPLKATAPVSFNYYGVVTGPSASKICNDLRSSRARLLELFTDLSCNPEMMKNAADSYFSLLQGFINSLDESTQESKLRYIQNFKWTDTLQGQVPSAQQDAVFELISMGFNVALWYTKYASRLAGKENITEDEAKEVHRSLKIAAGIFKHLKESHLPKLITPAEKGRDLESRLIEAYVIQCQAEAQEVTIARAIELKHAPGDIAADAYETANFYQKADHTLSSLEPAYSAKWRKYLHLKMCFYTAYAYCYHGETLLASDKCGEAIRSLQEAEKLYAKAEALCKEYGETKGPGPTVKPSGHLFFRKLGNLVKNTLEKCQRENGFIYFQKIPTEAPQLELKANYGLVEPIPFEFPPTSVQWTPETLAAFDLTKRPKDDSTKPKPEEEVKPVKEPDIKPQKDTGCYIS [L208D;L212D] | disrupting interaction strength
